Laboratory results from patent US20220204613A1 (D 10 THERAPEUTICS, published 2022).
Numbering of substitutions follows the chain as printed. Names may count otherwise. Each block holds one molecule with its values, some of them ahead of it.

Assays:
human CD47 protein [1] = molecular target: T1, human CD47 protein (human, UniProt Q08722 19-139, limits assumed); test: SPR Biacore, supernatant ranking run, human CD47 analyte 5 nM
T1 construct: also called human CD47 antigen

human CD47 protein [2] = molecular target: T1, human CD47 protein; test: SPR (Biacore) affinity ranking, ligand captured through Fc, human CD47 as analyte, 25 °C, 1:1 Binding model; fit of a flat sensorgram
human CD47 protein [3] = molecular target: T1, human CD47 protein; test: SPR Biacore, supernatant antibody Fc-captured, human CD47 analyte 5 nM
Procedure: Production and affinity ranking of humanized antibodies. The designed plasmids of heavy chain and light chain were sent for 3 mL transfection following GenScript's SOP. For affinity ranking, Antibodies were captured on the sensor chip through Fc capture method. Human CD47 protein was used as the analyte. The surface was regenerated before the injection of another antibody. The process was repeated until all antibodies were analyzed. The off-rates of antibodies were obtained from fitting the experimental data locally to 1:1 interaction model using the Biacore® T200/8K evaluation software. The antibodies were ranked by their dissociation rate constants (off-rates, kd).

human CD47 protein [4] = molecular target: T1, human CD47 protein; test: SPR Biacore, purified IgG Fc-captured, human CD47 analyte 0.3125-10 nM
Text: Affinity measurement of purified humanized IgGs. The affinity of purified antibody binding to human CD47 was individually determined using a Surface Plasmon Resonance (SPR) biosensor, Biacore® T200/8K (GE Healthcare). Antibodies were captured on the sensor chip through Fc capture method. Human CD47 protein was used as the analyte. The data of dissociation (kd) and association (ka) rate constants were obtained using Biacore T200/8K evaluation software. The equilibrium dissociation constants (KD) were calculated from the ratio of kd over ka.

T1 sequence (Q08722 19-139 limits assumed): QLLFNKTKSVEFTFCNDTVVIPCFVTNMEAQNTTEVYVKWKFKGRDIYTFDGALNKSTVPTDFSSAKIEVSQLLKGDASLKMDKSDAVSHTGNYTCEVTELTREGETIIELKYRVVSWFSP

Kd (human CD47 protein [1]): 387 nM | koff (human CD47 protein [1]): 0.0179 s⁻¹ | kon (human CD47 protein [1]): 46300 M⁻¹ s⁻¹ | Kd (human CD47 protein [2]): 387 nM | koff (human CD47 protein [2]): 0.0179 s⁻¹ | kon (human CD47 protein [2]): 46300 M⁻¹ s⁻¹
Molecule: NC

Kd (human CD47 protein [3]): 0.698 nM | koff (human CD47 protein [3]): 0.00413 s⁻¹ | kon (human CD47 protein [3]): 5.92e+06 M⁻¹ s⁻¹
B1: VH2+VL2 (antibody, human IgG4 S228P, kappa, V domains shown)
VH: QVQLVQSGAEVKKPGASVKVSCKASGYTFTSSVIHWVRQAPGQGLEWLGYINPYSDGTKFNEKCKIRATMTSDTSISTAYMELSRLRSDDTAVYYCARGLIGTRYDSWFAYWGQGTLVTVSS
VL: DIQMTQSPSSLSASVGDRVTITCRTSQDINNYLNWYQQKPGKAVKLLIYYTSRLHSGVPSRFSGSGSGTDFTFTISSLQPEDIATYFCQQGNTLPYTFGGGTKVEIKR
notes: Humanized IgG, hIgG4 CH (S228P) and human kappa CL; leader residues 1-19 of each entry left out; Tested from supernatant; also called U0959FD090-VH2 + U0959FD090-VL2

Kd (human CD47 protein [3]): 0.839 nM | koff (human CD47 protein [3]): 0.005 s⁻¹ | kon (human CD47 protein [3]): 5.96e+06 M⁻¹ s⁻¹
B2: VH4+VL1 (antibody, human IgG4 S228P, kappa, V domains shown)
VH: B1 VH with R38K, T74K
VL: B1 VL with V44P, F87Y
notes: Humanized IgG, hIgG4 CH (S228P) and human kappa CL; leader residues 1-19 of each entry left out; Tested from supernatant; also called U0959FD090-VH4 + U0959FD090-VL1

Kd (human CD47 protein [3]): 0.638 nM | koff (human CD47 protein [3]): 0.00378 s⁻¹ | kon (human CD47 protein [3]): 5.93e+06 M⁻¹ s⁻¹
B3: VH3+VL2 (antibody, human IgG4 S228P, kappa, V domains shown)
VH: B1 VH with R38K, A68V, M70L
VL: B1 VL
notes: Humanized IgG, hIgG4 CH (S228P) and human kappa CL; leader residues 1-19 of each entry left out; Tested from supernatant; also called U0959FD090-VH3 + U0959FD090-VL2

Kd (human CD47 protein [3]): 0.585 nM | koff (human CD47 protein [3]): 0.00332 s⁻¹ | kon (human CD47 protein [3]): 5.67e+06 M⁻¹ s⁻¹
B4: VH2+VL4 (antibody, human IgG4 S228P, kappa, V domains shown)
VH: B1 VH
VL: B1 VL with T22S, A43T, F71Y
notes: Humanized IgG, hIgG4 CH (S228P) and human kappa CL; leader residues 1-19 of each entry left out; Tested from supernatant; also called U0959FD090-VH2 + U0959FD090-VL4

Kd (human CD47 protein [3]): 0.368 nM | koff (human CD47 protein [3]): 0.00159 s⁻¹ | kon (human CD47 protein [3]): 4.32e+06 M⁻¹ s⁻¹
B5: VH1+VL2 (antibody, human IgG4 S228P, kappa, V domains shown)
VH: B1 VH with L48M, A68V, S72R
VL: B1 VL
notes: Humanized IgG, hIgG4 CH (S228P) and human kappa CL; leader residues 1-19 of each entry left out; Tested from supernatant; also called U0959FD090-VH1 + U0959FD090-VL2

Kd (human CD47 protein [3]): 0.803 nM | koff (human CD47 protein [3]): 0.00553 s⁻¹ | kon (human CD47 protein [3]): 6.89e+06 M⁻¹ s⁻¹
B6: VH3+VL1 (antibody, human IgG4 S228P, kappa, V domains shown)
VH: B1 VH with R38K, A68V, M70L
VL: B1 VL with V44P, F87Y
notes: Humanized IgG, hIgG4 CH (S228P) and human kappa CL; leader residues 1-19 of each entry left out; Tested from supernatant; also called U0959FD090-VH3 + U0959FD090-VL1

Kd (human CD47 protein [3]): 0.597 nM | koff (human CD47 protein [3]): 0.00348 s⁻¹ | kon (human CD47 protein [3]): 5.83e+06 M⁻¹ s⁻¹
B7: VH2+VL3 (antibody, human IgG4 S228P, kappa, V domains shown)
VH: B1 VH
VL: B1 VL with F71Y
notes: Humanized IgG, hIgG4 CH (S228P) and human kappa CL; leader residues 1-19 of each entry left out; Tested from supernatant; also called U0959FD090-VH2 + U0959FD090-VL3

Kd (human CD47 protein [3]): 0.772 nM | koff (human CD47 protein [3]): 0.00335 s⁻¹ | kon (human CD47 protein [3]): 4.34e+06 M⁻¹ s⁻¹
B8: VH4+VL2 (antibody, human IgG4 S228P, kappa, V domains shown)
VH: B1 VH with R38K, T74K
VL: B1 VL
notes: Humanized IgG, hIgG4 CH (S228P) and human kappa CL; leader residues 1-19 of each entry left out; Tested from supernatant; also called U0959FD090-VH4 + U0959FD090-VL2

Kd (human CD47 protein [3]): 0.602 nM | koff (human CD47 protein [3]): 0.00312 s⁻¹ | kon (human CD47 protein [3]): 5.18e+06 M⁻¹ s⁻¹
B9: VH3+VL3 (antibody, human IgG4 S228P, kappa, V domains shown)
VH: B1 VH with R38K, A68V, M70L
VL: B1 VL with F71Y
notes: Humanized IgG, hIgG4 CH (S228P) and human kappa CL; leader residues 1-19 of each entry left out; Tested from supernatant; also called U0959FD090-VH3 + U0959FD090-VL3

Kd (human CD47 protein [4]): 0.458 nM | koff (human CD47 protein [4]): 0.0016 s⁻¹ | kon (human CD47 protein [4]): 3.49e+06 M⁻¹ s⁻¹
B10: VH1-PTM+VL3 (antibody, human IgG4 S228P, kappa, V domains shown)
VH: B1 VH with L48M, D56E, C64S, A68V, S72R
VL: B1 VL with F71Y
notes: Purified humanized IgG with PTM sites removed, hIgG4 CH (S228P) and human kappa CL; leader residues 1-19 of each entry left out; also called U0959FD090-VH1-PTM + U0959FD090-VL3

Kd (human CD47 protein [3]): 1 nM | koff (human CD47 protein [3]): 0.00648 s⁻¹ | kon (human CD47 protein [3]): 6.47e+06 M⁻¹ s⁻¹
B11: VH2+VL1 (antibody, human IgG4 S228P, kappa, V domains shown)
VH: B1 VH
VL: B1 VL with V44P, F87Y
notes: Humanized IgG, hIgG4 CH (S228P) and human kappa CL; leader residues 1-19 of each entry left out; Tested from supernatant; also called U0959FD090-VH2 + U0959FD090-VL1

Kd (human CD47 protein [3]): 0.266 nM | koff (human CD47 protein [3]): 0.00128 s⁻¹ | kon (human CD47 protein [3]): 4.8e+06 M⁻¹ s⁻¹
B12: VH1+VL4 (antibody, human IgG4 S228P, kappa, V domains shown)
VH: B1 VH with L48M, A68V, S72R
VL: B1 VL with T22S, A43T, F71Y
notes: Humanized IgG, hIgG4 CH (S228P) and human kappa CL; leader residues 1-19 of each entry left out; Tested from supernatant; also called U0959FD090-VH1 + U0959FD090-VL4
